From patent US6936586B1, “Synthetic IL-10 analogues” (Steeno Research Group A/S, priority 1996, dated 2005)
Peptide text beside a SMILES is read from it.

B1: rhIL-10: recombinant human interleukin 10 obtained from Pepro Tech Inc. (protein)
chain: SPGQGTQSENSCTHFPGNLPNMLRDLRDAFSRVKTFFQMKDQLDNLLLKESLLEDFKGYLGCQALSEMIQFYLEEVMPQAENQDPDIKAHVNSLGENLKTLRLRLRRCHRFLPCENKSKAVEQVKNAFNKLQEKGIYKAMSEFDIFINYIEAYMTMKIRN

Legend:
human monocytes [1] = assay: Viability of cultured cells with IT9302; assay type: cell-based; conditions: any concentration of IT9302 between 0.1 and 1000 ng/ml; viability always exceeded 80% after 1 day in culture
human monocytes [2] = assay: Class II MHC (HLA-DR) antigen expression on IFN-γ stimulated human monocytes, flow cytometry; assay type: cell-based; conditions: 10 ng/ml rhIL-10 before IFN-γ 10 ng/ml, 40 hours; unstimulated 36.8%, IFN-γ alone 58.4%
Description: HLA-DR expression on human monocytes. The monocytes were isolated from fresh, heparinized blood by adherence to plastic at 37° C. in RPMI 1640 containing 10% FCS. After incubation, the supernatant was removed, Hank's solution (4° C. with 1% FCS) was added, and the cells were detached by cooling at […] for 15 minutes and gentle banging to the table. Monocytes were stimulated (2×10^6 cells/ml) in RPMI 1640 added 2% FCS, with IFN-γ (10 ng/ml), or rhIL-10 (100, 10, 1 ng/ml) added before IFN-γ, or IT9302 (10, 1, 0.1 ng/ml) added before IFN-γ for 40 hours. The cells were detached from the wells by cooling as before. Fresh, non-fixed cells were used for surface typing by antihuman antibody for HLA-DR. The cells were resuspended in Hank's solution with 1% FCS, 1×10^6 cells/ml and FITC conjugated mouse-anti-human HLA DR, DP, […] antibodies were added (F 0817, DAKO Denmark) for 45 minutes. The cells were washed three times in Hank's solution and a FACS analysis was performed on a Coulter-Epics XL-MCL flow cytometer at a wavelength of 488 nm. Non-specific binding was determined with a non-relevant Fitch conjugated antibody (mouse anti goat DAKO F 479).
The monocytes were purified as described above and stimulated for 40 hours by IFN-γ (10 ng/ml) and/or rhIL-10 and/or IT9302 added 30 minutes before IFN-γ. […]

human monocytes [3] = assay: Determination of apoptosis in monocytes (DNA typing, propidium iodide flow cytometry); assay type: cell-based; conditions: with IFN-γ stimulation; non-stimulated 6.6%, IFN-γ alone 4.1%
Description: Alternatively cells were fixed in 10% DMSO, 40% RPMI 1640 and 50% sterile FCS, and stored at −80° C. and used for DNA typing.
DNA typing of the stimulated monocytes. The fixed cells were incubated in 70 ethanol for 60 minutes and washed twice in Hank's solution. 1×10^6 cells were resuspended in 250 μl of RNase 1 μg/ml in 1.12% sodium citrate, pH 8.4 (Ribonuclease A, Pharmacia No. 17-0442-01) and incubated at 37° C. for 3 minutes. Thereafter, 250 μl of propidiumiodide (50 μg/ml in Hank's solution) was added, and cells were incubated in the dark for 30 minutes. After this the cells were washed twice in Hank's solution (Jensen et al., (110)). The DNA content was measured by flow cytometry on a Coulter-Epics XL-MCL at a wavelength of 550 nm.
The IFN-γ stimulated monocytes from above were incubated with propidium iodide and the DNA content was measured by flow cytometry. The fraction of cells expressing DNA in G1 or G2 phase of cell proliferation was measured and also the fraction expressing apoptosis.

[4] = test system: normal human CD4+ T cells; assay: IL-4 production by cultured CD4+ T lymphocytes, ECL-Western blotting; assay type: cell-based; conditions: IT9302 10 ng/ml or IL-10 100 ng/ml, 3 days, cytosolic fractions
Description: CD4+ T lymphocytes were purified from heparinized normal human blood. Following Lymphoprep™ (Nycomed Pharma, Oslo, Norway) gradient centrifugation, the mononuclear cells were further sorted at 4° C. using Dynabeads (Dynal AS, Norway) coated with monoclonal anti-CD4 antibodies. The beads were detached by adding polyclonal anti-mouse antibody (Dynal AS, Norway). The purity of the positively selected cells were higher than 99% as judged by FACS analysis. […]
Cells or freeze-dried cell culture supernatants were used for IL-4 protein content determination. […] The blots were then incubated with a polyclonal goat anti-human IL-4 antibody (R&D Systems, UK) followed by a horseradish peroxidase-labelled secondary antibody (Cat. no. RPN 2106 ECL, Amersham, UK), and the immunostaining was detected by exposing a film (Kodak X-OMAT-S, USA) for 90 seconds.
Thus, CD4+ T cells, purified as described in “Methods for T cell chemotaxis”, and cultured as described in the section “Determination of IL-4 production by CD4+ T lymphocytes”, were stimulated for 3 days with IT9302 (10 ng/ml) or IL-10 (100 ng/ml). Cytosolic fractions were collected and analyzed for their IL-4 content using Western blotting (FIG. 9) and a goat anti-human IL-4 polyclonal antibody.

PBMCs = assay: T cell proliferation, PHA stimulated PBMC, 3H-thymidine incorporation; assay type: cell-based, human; conditions: 72 hours, 3H-thymidine last 18 hours
Description: Proliferation assay. PBMCs (2×10^5) were cultivated in 200 μl of RPMI medium with 10% FCS for 72 hours with PHA 0.5 μl/ml and rhIL-10 (1, 10, 100 ng/ml) or IT9302 (0.1, 1, 10 ng/ml) in triplets. The last 18 hours ^3H-thymidine was added with 0.5 μCi/well (Amersham, Denmark). The cells were harvested on a filter (Glass Microfibre Filters, Whatman, Cat. No. 1822 849) and scintillation fluid (Ultima, Gold MV, Packard) was added. The scintillation counting was made on Tri-Carb model 1600 TR, Packard.
PBMC's were stimulated with PHA as described above and rhIL-10 and IT9302 were added for 72 hours, and the ^3H-thymidine incorporation was measured for the last 18 hours.

Row | Molecule | effect on viability of cells (human monocytes [1]) | MHC II antigen expression in the cell population (human monocytes [2]) [%] | fraction of monocytes expressing apoptosis (human monocytes [3]) [%] | production of IL-4 by cultured normal human CD4+ T cells [4] | optimum concentration for downregulation of cell proliferation (PBMCs) [ng/mL]
1 | CC[C@H](C)[C@H](NC(=O)[C@H](CCCCN)NC(=O)[C@H](CCSC)NC(=O)[C@@H](NC(=O)[C@H](CCSC)NC(=O)[C@H](Cc1ccc(O)cc1)NC(=O)[C@H](C)N)[C@@H](C)O)C(=O)N[C@@H](CCCNC(=N)N)C(=O)N[C@@H](CC(N)=O)C(=O)O [IT9302, NH2-Ala-Tyr-Met-Thr-Met-Lys-Ile-Arg-Asn-COOH] (H-AYMTMKIRN-OH) | did not in this or in the following examples affect viability | – | – | – | –
2 | B1 | – | 25.2 | 10.3 | induce the production of IL-4 | 100
